Laboratory results from article PMC9585074.

Molecular target: human myc-tagged essential myosin light chain (ELC) (human) (UniProt P08590)
Assay: co-IP; human myc-tagged ELC overexpressed in HEK293 cells, Myc-Trap magnetic beads, 1 mg lysate over night at 4 °C, immunoblot for endogenous kinases; basal or ionophore (ionomycin 1-5 µM, 4 mM CaCl2, 10 min) stimulation

Chain of UniProt P08590 (P08590 whole entry): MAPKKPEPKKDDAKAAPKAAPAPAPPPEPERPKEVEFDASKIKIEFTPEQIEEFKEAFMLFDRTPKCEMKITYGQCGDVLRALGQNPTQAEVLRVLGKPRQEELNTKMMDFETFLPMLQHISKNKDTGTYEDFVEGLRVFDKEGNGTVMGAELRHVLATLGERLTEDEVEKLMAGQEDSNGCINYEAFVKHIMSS

- averaged intensity of precipitated NEK9 normalized to actin of input, before doubling the ionophore concentration: 0.35
- averaged intensity of precipitated NEK9 normalized to actin of input, doubled ionophore concentration: 1.01
B1: NIMA-related kinase 9 (NEK9), human, endogenous in HEK293 cells (enzyme)
chain: MSVLGEYERHCDSINSDFGSESGGCGDSSPGPSASQGPRAGGGAAEQEELHYIPIRVLGRGAFGEATLYRRTEDDSLVVWKEVDLTRLSEKERRDALNEIVILALLQHDNIIAYYNHFMDNTTLLIELEYCNGGNLYDKILRQKDKLFEEEMVVWYLFQIVSAVSCIHKAGILHRDIKTLNIFLTKANLIKLGDYGLAKKLNSEYSMAETLVGTPYYMSPELCQGVKYNFKSDIWAVGCVIFELLTLKRTFDATNPLNLCVKIVQGIRAMEVDSSQYSLELIQMVHSCLDQDPEQRPTADELLDRPLLRKRRREMEEKVTLLNAPTKRPRSSTVTEAPIAVVTSRTSEVYVWGGGKSTPQKLDVIKSGCSARQVCAGNTHFAVVTVEKELYTWVNMQGGTKLHGQLGHGDKASYRQPKHVEKLQGKAIRQVSCGDDFTVCVTDEGQLYAFGSDYYGCMGVDKVAGPEVLEPMQLNFFLSNPVEQVSCGDNHVVVLTRNKEVYSWGCGEYGRLGLDSEEDYYTPQKVDVPKALIIVAVQCGCDGTFLLTQSGKVLACGLNEFNKLGLNQCMSGIINHEAYHEVPYTTSFTLAKQLSFYKIRTIAPGKTHTAAIDERGRLLTFGCNKCGQLGVGNYKKRLGINLLGGPLGGKQVIRVSCGDEFTIAATDDNHIFAWGNGGNGRLAMTPTERPHGSDICTSWPRPIFGSLHHVPDLSCRGWHTILIVEKVLNSKTIRSNSSGLSIGTVFQSSSPGGGGGGGGGEEEDSQQESETPDPSGGFRGTMEADRGMEGLISPTEAMGNSNGASSSCPGWLRKELENAEFIPMPDSPSPLSAAFSESEKDTLPYEELQGLKVASEAPLEHKPQVEASSPRLNPAVTCAGKGTPLTPPACACSSLQVEVERLQGLVLKCLAEQQKLQQENLQIFTQLQKLNKKLEGGQQVGMHSKGTQTAKEEMEMDPKPDLDSDSWCLLGTDSCRPSL
